Experimental data taken from paper PMC12300839, “Noncovalently Immobilized Glucose Oxidase/Horseradish Peroxidase Cascade on Polyamide Supports for Eco-Friendly Polyaniline Synthesis” (Molecules, 2025).

Substrate: OC[C@H]1OC(O)[C@H](O)[C@@H](O)[C@@H]1O
Test: purified protein
Type: biochemical, Aspergillus niger
Conditions: apparent Km of the whole free GOx/HRP cascade, not of isolated GOx, authors call the kinetics governed by HRP, glucose 50-150 µM, dissolved O2, constant TMB, 0.1 M acetate pH 4.5, room temperature

B1: glucose oxidase (GOx) (Aspergillus niger) (protein)
chain: LPHYIRSNGIEASLLTDPKDVSGRTVDYIIAGGGLTGLTTAARLTENPNISVLVIESGSYESDRGPIIEDLNAYGDIFGSSVDHAYETVELATNNQTALIRSGNGLGGSTLVNGGTWTRPHKAQVDSWETVFGNEGWNWDNVAAYSLQAERARAPNAKQIAAGHYFNASCHGVNGTVHAGPRDTGDDYSPIVKALMSAVEDRGVPTKKDFGCGDPHGVSMFPNTLHEDQVRSDAAREWLLPNYQRPNLQVLTGQYVGKVLLSQNGTTPRAVGVEFGTHKGNTHNVYAKHEVLLAAGSAVSPTILEYSGIGMKSILEPLGIDTVVDLPVGLNLQDQTTATVRSRITSAGAGQGQAAWFATFNETFGDYSEKAHELLNTKLEQWAEEAVARGGFHNTTALLIQYENYRDWIVNHNVAYSELFLDTAGVASFDVWDLLPFTRGYVHILDKDPYLHHFAYDPQYFLNELDLLGQAAATQLARNISNSGAMQTYFAGETIPGDNLAYDADLSAWTEYIPYHFRPNYHGVGTCSMMPKEMGGVVDNAARVYGVQGLRVIDGSIPPTQMSSHVMTVFYAMALKISDAILEDYASMQ
notes: commercial native enzyme, type VIII (Merck/Sigma Aldrich), free in solution, ~160 kDa, FAD-containing
Km: 275 µM
Vmax: 696 µM/min/mg
